In the DeepSol protein solubility set:

Experiment: soluble on expression in E. coli; label from the status in PepcDB or PDB records

| Sequence | soluble on expression in E. coli |
| --- | --- |
| GPGSMSKGFEVYPLTGSHKEVVINEALIRSAISFKPSLTTEDDRVRVVGNQEKALCEEKVQKEAAGIALEDVQTLLLSFRGIKRLENLSCLRSLTKLHLDNNRIRCIEHLESLVHLEWLDLSYNAIEVIDGLQALQHLNCLSLYANKITAVDGLTCLPELNTLSLGRNPLENIDETVHYLHHLPRLQVLTLKECPLAGLPNYRSRVLAFVRGLKFFDGHLVRHDEAAKAREAFRENLLTVDEEDEARAAAAKLQADQEIIASSYQQYNCPNEVMLFDELLHLDPEGRHMEAILRSEAVFSVAKEPLDRYQTEFNEQLRQLTAAMKDIRERRDADDAAYREAVTYTLRHSAAASLASMQRFEALAKGHIVKGVAQPVPGPAKRLPSQATRSLHAALDKLKKDLLEEEAHQYDVLEVLHNNTIAKWKSHSVEVVLQSSFEALLRLETDFQATVRHIFDAVFEERRKGDNAERAFRYVGQDDAMLAFLDNKEEYQRTVNEWYELRRKRVEELEMHHLKAEETLLNARANSILAAEQDRHRRRVHEVCQYVKEMSSRIDGCDH | not soluble |
| MGSDKIHHHHHHMVGTDHVVHSLVACALCFKAVTLPLSSQTQILSGWGRTMPVQAKVVQPASVQQVQELVRQASPASLIARGLGRSYGDAAQLDGASAVEMGAFDQINLDLVKGSVTAGAGVSLNQLLRVIVPAGFFLPVTPGTRNVTIGGAIAADVHGKNHHVDGSFGNHLQRLLLVDGRGELRELTPSGKSSVDEIEQFWATVGGMGLTGIIVEATFSLIPISSSLISVNTARYHNLDELMAAMVASDSNYRYSVAWIDSLNAKGRGVLSCGDHAMAEQLPTSQQADPLVYDPKPLASAPTFLPVGLLNKLTVRAFNEAWFRKAPKQRLGELQTIGAYFHPLDGVQDWNRIYGPAGFLQYQFVVPDNASHLVLYTLEALRKIGTSSFLTVLKRFGPSNPGHLSFPMQGWTLAVDLPAAVPGLFEVLDHLDEHIAAENGRLYLAKDSRQSATILRRTYPRLEEWQQAREKLDPSKVFSSDMAIRTGL | not soluble |
| MAMNNILGLFAQSPLKPLQKHSVKVTECSELLEPFFEATFKQDWDEAIKVREQIIDLERRADALKREIRLKLPRGLFLPVERTDLLELVTQLDKLANYSRDISGRIIGRQLVIPEAMQATFRKFLSRSLDSTRQVRKVLAELDKLLETGFRGRELKFVNNMILELDQIEDDTDQIQIVLRRTLRGLEQEFNPIDVIFLYKCIERVSILADQAQRVGSRIELMLAKALEHHHHHH | soluble |
| MGSDKIHHHHHHVNAIQVPDAPVVLSTASVYPEKTPAAFEIAAELGYDGIEVMVTADPVSQDIDMLRRLSEYHQIPITAIHAPCLIFTQRVWGRDPWIKLIKSKEMAEALGATTVVVHPAFKWQREYAREFESGILKMRDETDVIFAVENMYQVRMRGKEVVPYAPSWNPLDRDYPNVTLDLSHTAMSQSDAMDMARQLGDRLSHVHLADGVGGQNFDEHLIPGRGNQPCAELLEHLANNDYRGQIVLEVNTRKSDRETRLTELAEALAFTRLHFARSVPPEPRSEQPEREQIVVRSVPAPALRVFSVHSDGTVSTD | not soluble |
| MKTINLSIFGLGNVGLNLLRIIRSFNEENRLGLKFNVVFVADSLHSYYNERIDIGKVISYKEKGSLDSLEYESISASEALARDFDIVVDATPASADGKKELAFYKETFENGKDVVTANKSGLANFWPEIMEYARSNNRRIRYEATVAGGVPLFSFIDYSVLPSRIKKFRGIVSLTINYFIRELANKREFDDVLSEATKLGIVEKNYKDDLTGLDAARKSVILCNHLYGSSYRLSDVFYEGILDQDRSFGKNERLVTETGIVNGKPSAESRIKSLDSNDYLLTLGKGSLGYQLQTDTNGTLNVSDLYDGPYETAGAVMNDLVILSMFTV | soluble |
| MSQSNLIQTDRFVLSETERSSIEHEMHHYEDPRAASIEALKIVQKQRGWVPDGAIPAIGEVLGIPASDVEGVATFYSQIFRQPVGRHIIRVCDSMVCYIGGHESVVGEIQKQLGIGLGQTTADGRFTLLPVCCLGNCDKAPALMIDDDTHGDVRPDGVAKLLEAYV | not soluble |
| MSRNVGVLGQMSEINDHLYLSGAGVLKPDKIKQRKINMIVNATTEEPSTYMQGVDTMKIRIEDHPYARLNEHFDVVADKIRNVKERGGKTLVHCMAGVSRSASLVMIYLVKHEHMTLRQAYHYVKAARPIIRPNVGFWKQMVDYEKRLRGTASVKMVQTPECDMPIPDVYADDIRRMQINREISRHSLPSAQSSASKQRAFSASTYRPSVSSASSLATSSLRRAYSPSSLPASSLALTTSYSLFSPAPTRKPRQSLFSMYSTSPRHNFFSAF | not soluble |
| MGSDKIHHHHHHMGKLCSFLEKHKRSFPIGLSGNTGMGYILTGGISPLSRSKGLAIDQIIEIKGFWGNGKEFHLLRPNTKNELTNEWKALCGAAIFLGIITQVKLKTQPLRPLLSWTANLSFSELSECINQAESWPNSLSLQWIYGDDIFAHAIGEIKNTDDESVMIKLLEKLPFSRNRIINKFNNMKSLPNLSFGNNNNYNNSNHSEVLGLLGPAWQEKNKQVLKILKELINKRPNKSCYIASQQLGGLTHLNDLDTSFIHRDAIWKPWINGAWEAHNQAKRKRTLEWMTECWNNLEFICPGVHLAQIHPHLEWHKKELSSAFEDWLPNLEELKAIHDPRNIMPPLK | not soluble |
| MGSDKIHHHHHHMTPSEYQNPILCADYSDPDIVRVGDDFFMVSSSFNHVPALPILHSTDLVNWTIINHVMDELPLPGYDRYQPGKGVWAPSIRWHDGKLWVCFSTPDEGIFICHTEDPWGKWSAPHCLREARGWIDPCPFWDDNGQAWLVHAFAHSRSGIKHKLQLFAMAPDASELLGEGQIIYDGCCDLPTLEGPKVYQRAGWYYIFAPAGGVENGWQTVLRARQMTGPWEAKNVLFQGNTSINGPHQGGWVEGEEGECWFVHFQDLHLYGRVVHLQPMSWGNDGWPRIGEQIGNCGVGQPVLRWPRPKGLTPSPALAPQTSDYFAQGQPGIQWQWQANPSPEWLLPAEGELRLRCVPLSEVDGQRALYWAPQLLLQKFPALTFSAKTSVTLYAAQDGDAGGLIVYGERYAALLVEFGQGGYRLVWRHGWMSDAGVVRETRQVLAELKCGKCQLQVAVGEGGLCQFSWRAEEEWRKVPLCFAAGKGKWVGAKFGLLAASMVGLQSEGYSALQDFEVIL | not soluble |
| GPGSMPRGAIPTGQDWEEQRFNFQQRGSGGSAQPRKVTERDANRAMQSGQNVQVQRKEHQRFNQQTVSAGANAKKLDEDNETLKVKKVDPHLRVRIMKERQALNWSQQDLAQRISERVSVVAEYESGKAVQEERVIVKMEKALGVHLRGAKAGEPMGKTRPAPKAQE | soluble |
| MEDPLGRLEWIKFLSAFYDKEDKAENYFNQQVSKVMATENKVSSLKKPKVAFGMVDNGKVYIPAKNSYAAKMVDMAGGDYIFKDLNNKSGYITLEDFYSKSKDADVLIYSSSKEYTPSLKSMLSAAPILKTIKPVKNKKVWCFGKDYYQAIDKTDEIIEDLASIFHPESFKGYKIKHYSHLEHHHHHH | soluble |
| MSLTPTVMVVDESRITFLAVKNALEKDGFNVIWAKNEQEAFTFLRREKIDLVFVDVFEGEESLNLIRRIREEFPDTKVAVLSAYVDKDLIINSVKAGAVDYILKPFRLDYLLERVKKIISSTPRVTVSLRKNIEDLEITLKFEDIVRKEIKRSNRTGSRFCVMYVKFEDIMRDYETIKKFFRETDYVLPISASEYLFVLTLTGKHGIEAVTRRMKEKLSERFSYTYVCYPDDGKTYEEIILTLKDRMAKPRGEGHHHHHH | soluble |
| PKATAQMEGRLQEFLTAYAPGARLALADGVLGFIHHQIVELARDCLAKSGENLVTSRYFLEMQEKLERLLQDAHERSDSEEVSFIVQLVRKLLIIISRPAR | soluble |
| SLDSKTTVNINIPSGSSVSAIASILKKNDVIKSEKAFQYYVKYKGASGFQAGFYHLNKGMDLDAIIQKLTSGATGYAFQITVTEGAQLTQIAAAIADETKYSKKQVIAKLDDETFINQLKKEFPDTVTNDVFNKNIKHPLEGYLFPATYPFNDPDTSLEDIIKAMIKQTNSYVETYKSEMKKNKVSVHKLLTMASLIEEEATEKADRHKIASVFYNRLKKKMPLQTDPTVLYAAGKHKDRVLYKDLEIDSPYNTYKNTGLTPGPIANAGMSSWEAALHPDKTDYLYFLAKSNGEVVFTKTLKEHNKAKEKYISSKNEK | soluble |
| MSLLAQLDQKIAANGGLIVSCQPVPDSPLDKPEIVAAMALAAEQAGAVAIRIEGVANLQATRAVVSVPIIGIVKRDLEDSPVRITAYIEDVDALAQAGADIIAIDGTDRPRPVPVETLLARIHHHGLLAMTDCSTPEDGLACQKLGAEIIGTTLSGYTTPETPEEPDLALVKTLSEAGCRVIAEGRYNTPAQAADAMRHGAWAVTVGSAITRLEHICQWYNTAMKKAVL | not soluble |
